Measured values published in patent US6849598B1, “Therapeutic compositions comprising bactericidal/permeability-increasing (BPI) protein products” (XOMA, priority 1995, dated 2005).

Tests used:
Type in all cases: cell-based
A. baumannii = assay: Bactericidal activity in water, TSB, CSMHB or serum, CFU after 24 hours (Example 5)
Method: (§1) The bactericidal activity of therapeutic compositions comprising BPI protein product and PLURONIC F68, P103, P104, P105 or P123 were evaluated against the S. aureus and A. baumannii organisms of Example 1, the S. pneumoniae organism of Example 3, an E. faecium organism (Microscan® ID No. 16866), and a strain of P. aeruginosa from the American Type Culture Collection (ATCC No. 19660). Therapeutic compositions were formulated by adding the appropriate amount of poloxamer to a stock solution of 2.2 mg/mL rBPI21 (5 mM sodium citrate, 150 mM NaCl, without poloxamer), to achieve the desired 0.2% (w/v) poloxamer concentration, followed by sterile filtration. Formulated product was stored at 2-8° C. for up to 6 months. Sterile stock solutions of poloxamer were made by dissolving the poloxamer paste in water for injection (WFI, Kendall-McGaw) with mixing to a 1-5% concentration (w/v) at room temperature, followed by sterile filtration. Assays were conducted in 96-well microtiter plates using WFI, tryptic soy broth (TSB, Remel, Lenexa, Kans.), Mueller-Hinton Broth plus Cations (CSMHB, Remel), or 40% pooled human serum in CSMHB (Sigma, St. Louis, Mo.) as growth media, according to the general procedure described above in Examples 2 and 3.

S. pneumoniae = assay: as above; conditions: Control 3 × 10^5
Method: as §1

[1] = test system: E. faecium (Microscan® ID No. 16866); assay: as above
Method: as §1

S. aureus [2] = assay: as above
Method: as §1

[3] = test system: S. pneumoniae (Microscan® ID no. 145); assay: Bactericidal activity in water or broth, CFU after 30 minutes and 3 hours (Example 3)
Method: (§2) The bactericidal activity of therapeutic compositions comprising BPI protein product and heat-treated PLURONIC P103 or heat-treated PLURONIC P104, was evaluated against the S. aureus and A. baumannii clinical isolates of Example 1 and the additional organisms S. pneunoniae (Microscan® ID no. 145) and E. faecium (Microscan® ID no. 15773). Therapeutic compositions comprising 500 μg/mL rBPI21 in a 0.075% (w/v) concentration of either heat-treated PLURONIC P103 or heat-treated PLURONIC P104 were formulated by diluting a 2 mg/mL solution of “non-formulated” rBPI21 or “formulated” rBPI21, with the appropriate amounts of 0.1% heat-treated PLURONIC P103 or heat-treated PLURONIC P104 solutions. Compositions comprising 500 μg/mL non-formulated rBPI21 in water alone (without any poloxamers) and poloxamer control solutions containing only 0.1% heat-treated P103 or heat-treated P104 (and no rBPI21) were also prepared A “formulated” rBPI23 therapeutic composition containing 1 mg/mL rBPI23, 0.1% PLURONIC F68 and 0.002% TWEEN 80 was also tested for comparison.
(§3) Sterile stock solutions of heat-treated PLURONIC P103 or heat-treated PLURONIC P104 were prepared using the following procedure: (1) making a 0.1% (w/v) solution of the poloxamer in deionized water, (2) heating the solution to a boil, (3) allowing it to cool to room temperature, (4) stirring until the PLURONIC P103 was completely solubilized, and (5) filtering the solution through a 0.22 μm Nalgene filter for sterilization.
(§4) The S. aureus, E. faecium and A. baumannii bacteria were grown on TSA plates (Remel, Catalog #01-920, Lenexa, Kans.), and the S. pneumoniae were grown on 5% sheep blood agar plates (Remel, Catalog# 01-200, Lenexa, Kans.) for 24 hours. A bacterial stock emulsion was prepared by emulsifying bacterial colonies in sterile deionized water to approximately 2.2 to 3.8×10^8 CFU/mL as measured by a Microscan® Turbidity Meter, and diluting further by 1:10 in water. Assays for rBPI21 therapeutic compositions were conducted in 96-well flat-bottom microtiter plates (Corning, catalog# 25860-96) by adding to each well: 185 μL of TSB (Remel, catalog #08-942, Lenexa, Kans.) or sterile water for injection (Kendall McGaw); 8 μL of the bacterial emulsion; 6.3 μL of the indicated 500 μg/mL rBPI21/poloxamer therapeutic composition (or poloxamer control solution or water alone). The final concentrations of bacteria in each well were about 4 to 7×10^5 CFU/mL. Assays for the rBPI23 therapeutic composition were conducted in the same way, except 178 μL of broth or water and 13 μL of the […] rBPI23 composition were added. The well contents were mixed and the plates were incubated at 37° C. The CFUs in each well were counted at 10^−2 and 10^−4 dilutions after 30 minutes and 3 hours of incubation. Results at 30 minutes and 3 hours, respectively, are shown below in Tables 8 and 9.

[4] = test system: A. baumannii (formerly A. anitratus); assay: as above
Method: as §2, §3, §4

[5] = test system: E. faecium (Microscan® ID no. 15773); assay: as above
Method: as §2, §3, §4

S. aureus [6] = assay: as above
Method: as §2, §3, §4

[7] = broth, Incubation for 3 hours, Control TNTC
[8] = water, Incubation for 3 hours, Control TNTC
[9] = broth, Incubation for 30 minutes, Control TNTC / TNTC
[10] = water, Incubation for 30 minutes, Control TNTC / TNTC

B1: rBPI21: expression product of DNA encoding amino acid 1 to approximately 193 or 199 of BPI holoprotein, cysteine 132 substituted with alanine (protein, UniProt P17213 32-224, looked up, variant C132A)
chain: VNPGVVVRISQKGLDYASQQGTAALQKELKRIKIPDYSDSFKIKHLGKGHYSFYSMDIREFQLPSSQISMVPNVGLKFSISNANIKISGKWKAQKRFLKMSGNFDLSIEGMSISADLKLGSNPTSGKPTITASSCSSHINSVHVHISKSKVGWLIQLFHKKIESALRNKMNSQVCEKVTNSVSSELQPYFQTL
colony forming units after 24 hours of incubation (A. baumannii; Serum (40% pooled human serum in CSMHB), Control 2 × 10^5): 2 × 10^5 | colony forming units after 24 hours of incubation (A. baumannii; TSB, Control 3 × 10^6): 6 × 10^2 | colony forming units after 24 hours of incubation (A. baumannii; Water, Control 2 × 10^6): <100 | colony forming units after 24 hours of incubation (S. pneumoniae): 5 × 10^4 | colony forming units after 24 hours of incubation ([1]; TSB, Control 5 × 10^5): 5 × 10^5 | colony forming units after 24 hours of incubation ([1]; Water, Control 4 × 10^5): 100 | colony forming units after 24 hours of incubation (S. aureus [2]; Serum (40% pooled human serum in CSMHB), Control 4.2 × 10^5): >1 × 10^5 | colony forming units after 24 hours of incubation (S. aureus [2]; TSB, Control 5.4 × 10^5): 5.7 × 10^5 | colony forming units after 24 hours of incubation (S. aureus [2]; Water, Control 8.2 × 10^5): 3.2 × 10^4 | CFUs ([3]; broth, Incubation for 30 minutes, Control 4 / 1): 4 10000 CFUs | CFUs ([3]; broth, Incubation for 30 minutes, Control 389 / 350): 290 100 CFUs | CFUs ([3]; broth, Incubation for 3 hours, Control 337): 447 100 CFUs | CFUs ([3]; water, Incubation for 30 minutes, Control 1 / 0): 0 10000 CFUs | CFUs ([3]; water, Incubation for 30 minutes, Control 75 / 47): 61 100 CFUs | CFUs ([3]; water, Incubation for 3 hours, Control 0): 0 100 CFUs | CFUs ([4]; A. anitratus, broth, Incubation for 30 minutes, Control 44 / 41): 24 10000 CFUs | CFUs ([4]; A. anitratus, broth, Incubation for 30 minutes, Control TNTC / TNTC): TNTC | CFUs ([4]; A. anitratus, water, Incubation for 30 minutes, Control 16 / 17): 0 10000 CFUs | CFUs ([4]; A. anitratus, water, Incubation for 30 minutes, Control TNTC / TNTC): 73 100 CFUs | CFUs [4, 7]: 58 100 CFUs | CFUs [4, 8]: 0 100 CFUs | CFUs ([5]; broth, Incubation for 30 minutes, Control 68 / 38): 89 10000 CFUs | CFUs [5, 9]: TNTC | CFUs [5, 7]: TNTC | CFUs ([5]; water, Incubation for 30 minutes, Control 37 / 35): 1 10000 CFUs | CFUs [5, 10]: 50 100 CFUs | CFUs [5, 8]: 1 100 CFUs | CFUs (S. aureus [6]; broth, Incubation for 30 minutes, Control 65 / 59): 57 10000 CFUs | CFUs (S. aureus [6]; [9]): TNTC | CFUs (S. aureus [6]; [7]): TNTC | CFUs (S. aureus [6]; water, Incubation for 30 minutes, Control 54 / 63): 2 10000 CFUs | CFUs (S. aureus [6]; [10]): 315 100 CFUs | CFUs (S. aureus [6]; [8]): 12 100 CFUs
